# Test results published in paper PMC10411902 (Science Advances, 2023).
# T1: BRCA1-associated protein 1 (BAP1), full-length human (residues 1 to 729) (human, UniProt Q92560 1-729)
# T1 sequence: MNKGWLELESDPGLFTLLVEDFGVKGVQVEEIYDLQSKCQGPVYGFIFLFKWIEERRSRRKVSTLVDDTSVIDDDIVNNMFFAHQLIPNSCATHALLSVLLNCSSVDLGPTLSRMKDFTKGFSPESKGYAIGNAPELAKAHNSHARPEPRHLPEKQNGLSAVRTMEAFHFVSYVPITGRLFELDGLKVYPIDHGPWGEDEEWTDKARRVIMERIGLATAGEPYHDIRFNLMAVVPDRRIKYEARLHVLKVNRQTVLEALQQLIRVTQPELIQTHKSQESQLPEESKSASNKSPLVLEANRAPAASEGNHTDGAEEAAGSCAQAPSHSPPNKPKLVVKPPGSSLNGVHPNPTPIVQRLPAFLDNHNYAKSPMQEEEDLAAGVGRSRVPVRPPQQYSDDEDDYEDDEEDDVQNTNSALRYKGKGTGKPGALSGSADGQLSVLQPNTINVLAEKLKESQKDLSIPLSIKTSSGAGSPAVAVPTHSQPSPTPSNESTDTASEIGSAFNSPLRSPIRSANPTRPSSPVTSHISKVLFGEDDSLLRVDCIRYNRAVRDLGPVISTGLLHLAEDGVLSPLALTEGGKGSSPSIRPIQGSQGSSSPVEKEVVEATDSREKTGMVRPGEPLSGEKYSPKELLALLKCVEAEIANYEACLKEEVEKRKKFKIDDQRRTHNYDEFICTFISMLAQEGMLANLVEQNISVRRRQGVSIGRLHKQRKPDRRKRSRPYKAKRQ
# Target: T1, BRCA1-associated protein 1 (BAP1), …
# Test: cryo-EM structure
binder,measurement,value
"Deubiquitinase adaptor domain (DEUBAD) of additional sex comb-like 1 (ASXL1), residues 237 to 390 (domain or fragment) PATGQMKRNRGEEIDFETPGSILVNTNLRALINSRTFHALPSHFQQQLLFLLPEVDRQVGTDGLLRLSSSALNNEFFTHAAQSWRERLADGEFTHEMQVRIRQEMEKEKKVEQWKEKFFEDYYGQKLGLTKEESLQQNVGQEEAEIKSGLCVPG",binding result,binds
